Measurements taken from the DeepSol protein solubility set.

Experiment: soluble on expression in E. coli; label from the status in PepcDB or PDB records

| Sequence | soluble on expression in E. coli |
| --- | --- |
| MKKILLSLLALGCFSAANAQTFRFGPTVGGNLNISDETKTKIGFAVGAKAEMNFNNPENGWFMDASVLFNNRNRQSENYFNNETKLTQCWKYSTYSLLVPVNVGYKFRLSDNLNLLAAVGPYADFGLTGTDKVTTTDAKGHSKEEKMSSNVYGDKLFNRVNFGFDAKVGVEIAKHYQLSLSYSRGFTNIFKGGLNTKAQDLQLGFSYMF | not soluble |
| MKKILSILLALLLSISSLGVTTSHAEEKIHIEAAAALLFDADTGKILHEQNPDELLAIASMSKLIVVYAVLEAIKEGKITWDTKVNISDYAYEVSRNNEFSNVPFEKGRQYTVRELYHSIVIFSANGSSIALAELLAGSEKNFLNLANEHAKKLGLKKYKFVNATGLNNTDLKGKHPEGTDPNAENSMSARDMGILSKAMITKYPEMLEDTKQRFRNFPDNHPKPIRMENWNWMLPGAAFAYEGTDGLKTGSSDTAGYGFTITAKRGDVRLISVIIKTKSMDERFTESRELIEYGFNNFEKQKLKVDKNNTLSVAQGKEDQVTVAPEKEITVIAKKGSKNPYKIGTEVDKSLAEDGHLVAPIKKDAKVGSITLESTDKYGFLDGSNSMKVTAKTTEEVEKANWFVLTMRSIGDFFSNLWSKVF | not soluble |
| MKKKIAEYEVGEQVDIFLLIKTATKGIASNGKPFLTVILQDPSGDIEAKLWDVSPEVEKQYVAETIVKVAGDILNYKGRIQLRVKQIRVANENEVTDISDFVEKAPVKKEDMVEKITQYIFEMRNPNIQRLTRHLLNKHQNEFLDYPAATKNHHEFVSGLAYHVVSMLDLAKAISNLYPSLDKDLLYAGVILHDLGKVIELSGPISTTYTLEGNLLGHISIMVNEIGKAADELQIDAEEVLILQHIVLSHHGKAEWGSPKPPLVKEAEILHYIDNLDAKMNMMDRALGRTKPGEYTERVFALDNRSFYKPSFHN | not soluble |
| MKKKNVVVFGGGTGLSVLLRGLKTFPVSITAIVTVADDGGSSGRLRKELDIPPPGDVRNVLVALSEVEPLLEQLFQHRFENGNGLSGHSLGNLLLAGMTSITGDFARGISEMSKVLNVRGKVLPASNRSIILHGEMEDGTIVTGESSIPKAGKKIKRVFLTPKDTKPLREGLEAIRKADVIVIGPGSLYTSVLPNLLVPGICEAIKQSTARKVYICNVMTQNGETDGYTASDHLQAIMDHCGVGIVDDILVHGEPISDTVKAKYAKEKAEPVIVDEHKLKALGVGTISDYFVLEQDDVLRHNASKVSEAILEGKPRTSSSIQAAALEHHHHHH | soluble |
| MKKLATLTALAGALTMAVATAAQAESKSSSTDNTATPCVGDKCVKTKAAEGKCGEGKCGADKAKSAEGKCGEGKCGADKAKSAEGKCGEGKCGSK | not soluble |
| MKKLLLTLVSSSLLVACSQRTESMEDKSIAPCGDKPNCISTLDEREEFTVKPFILTSSANMKAISHIASQLKGAKLVDINNDYARIECTSSVFRFVDDLELRIYGNTLIVRSESRTGYSDFGVNRKRVEKLRTLLEEKGLISQLEHHHHHH | not soluble |
| MKKLLSIVLGLALSAPVLANEVSFEQYVERLKQQAREEGISERILNEAFRDVEYKPRSVVADKNQPEKKLTLDEYIPRAVPEWKVKQAQSLYEKHYTELQRIGKQYGVQPRFIVALWGVESNFGAFTGNFRVIDALSTLAYEGRREEFFRKETMAALQILEQGHIAPEAMKGSWAGAMGQCQFMPSSFLNFAADGNGDGKKDIWGTRSDVFASTANYLSQSGWDDKYTWGRQVKIPKGFDHALEGRQPEKGKTLQEWSKLGVTRYDGKPLPALSDDIKAWLIMPDDEAGRIYLVYNNYNVLMKWNRSHYFALAVSHLADRIAF | not soluble |
| MKKLMITQEAGVATVLIKNPPVNILTIDLINELNAFILSLKDDRETKVVVFKSFHEAFFIAHLDLNVINGTSGGQAASIEFNHMIANIKAMKQLSIAVVDGVARGGGNEFVMACDLAYGTENSAFAQPELYINIPTGGQGAVQFARRLGKGKALQALLTGADFTAQQAETLNIITQFVLKAELDVFLAQLLSVIVGWEIRDIVMYKEIIAASIKDEAVGTELELRYFLERAREEKTQTIIAAFLKHGGQTEREAKDMQGIFVDTAAELSK | not soluble |
| MKKLTFEQLRSVQMSILDRVHLFCERHDLEYSLAGGTLLGAIRHKGYIPWDDDIDIMMPREDYEYLLQNFAKEYPDFTFFNLDTKHNPYPFLFSKLSLNDSVISNGRIKGVGINIDIFPIDSLGKEKGAAKLRFSLMKAINFFARIQRSRHDRANPIVNIAFRLFQKCLKLLPKKWFLSAIKGLCSTCSVNDDGYAVSIGSSYLAKEFTESSLYHDYTSCPFEDRQYKCIARYDDYLSMIYGDYMQLPKEQDRENHDNVGFIKEHLLPMLEHHHHHH | not soluble |
| MKKLTIGLIGNPNSGKTTLFNQLTGSRQRVGNWAGVTVERKEGQFSTTDHQVTLVDLPGTYSLTTISSQTSLDEQIACHYILSGDADLLINVVDASNLERNLYLTLQLLELGIPCIVALNMLDIAEKQNIRIEIDALSARLGCPVIPLVSTRGRGIEALKLAIDRYKANENVELVHYAQPLLNEADSLAKVMPSDIPLKQRRWLGLQMLEGDIYSRAYAGEASQHLDAALARLRNEMDDPALHIADARYQCIAAICDVVSNTLTAEPSRFTTAV | soluble |
| MKKRGLENHPQNRKKIFERFPRLTKLSEKNLFQICKTTLLNERKMKSIQNTIDELRKLSAGKSSEEVQRLKEMQKHSKMFGEIFGVYGATVGKPKPKEKEVKVPTKEMTFEEKRKLLETTFPNKVTPGQRAKARETLNFIANNPEIYAIASPQDPSSKAKTDPVSRPQLNIISSFSWPITSGSDWSPHGSEFNDLTAPRVGKLTPVPQWSDMKKSSLKLGTEDNFSKMSYDPAYSNTTQSQSVTTLYNETSTPYYDDSDLGTPLHTCVQ | not soluble |
| MKKRLSILIAGLASLSVNAATEPWASPEAEVLSRAQIQQVQGKQTYTYVRCWYRPAATHDDPYTTWEWAKNADGSYYTIQGYWWSSIRQKNMFYTTVQPETLLERCEETLGVNHDFADITYFAADHRFSYNHTIWSNDPEVQSNRISKVIAFGDSLSDTGNIFNASQWRFPNPDSWFLGHFSNGFVWTEYLAQGLNVPLYNWAVGGAAGRNQYVALTGVYEQVSSYLSYMRLAKNYQPENSLFTLEFGLNDFMNYNRSLADVKADYSSALIRLIDAGAKNLVLMTLPDATRAPQFQYATQEQIDTVRSKIIGMNAFIREQARYYQMQGIRIVLFDAYTLFDSITTQPEQHGFANANSPCLDIRRNSAADYLLSHSLSAECAKQGSDRFVFWEVTHPTTAIHHYLAEQILATEMAQFPL | not soluble |
| MKKRYSWEELARAMGIEPQRLENKEARELKKFVDEMTWPTHCNYCQGLDLTNPNPVHHPSYELTPACNHDCIFCYSNVAVKLGKAPKPGYYGWDNPKVITISQYGEPLLSPRIVEVNKMLRKRFPEARLDLQTNGSLLTRELWEKLDFDLVMISLNAADREKHRRIANADTFEQVVNALKIVGEDKSVRSVVRTVFMPGINDEDIPKIAELAASLGIDEMHLQPLTIHELNVERLKKAGLDFERAESIRELLKAAMEAKKYIDVRISGCILVQLKQMDPITLYSVRRVAREVVPLVKRSKLDILEHHHHHH | not soluble |
| MKKSYLVTPLVAGALILPAALPATAAQASAPAPAAVSTVNKTALTTDQIKAERSALNSRINMLQETQKAIPGSQYADQIEDLIKTALDLSGAIDTIAHGGVPAYDPATIVPRIHLAIDAADAIKTGNTTLQHKVKKAHVELGLEIAKASIVAINPASSVAQVQDEIKALKARIDKVSAYPDLSKDDTATIAYKQTLRKTIHEVRVGRNKNIVGKKDQAVVDTLNKEISKADKVRANAKSTVAQVDTAVDQLRAAYQTALNAPDKAKKLEHHHHHH | not soluble |
| MKKTIYKCVLPLLICILLTGCWDRTEINDIAFVVSSAIDKKKDQYRVAMQIPLVGQLGGQTGGGGGTAGSKTWYVDSASGTTIREANNKLQTSLSRTINTSHRRTVIIGEDMARDGVAPVFDILTRNPQNRLTALILVSRGEARDILNTDVQLEQFPAEMIRELAIIATSRPVFLSRFMSDLVEIGSDPYAPVISASKTKPGGKGKSNLKIDGLAIFKKDRLMDIFKDEHMTAALMLLNQARQPEFIVDLPNQMGQASIQLQKSNASFHAAEKNGKLSMTIEIRAKGIIMENQSTYETRENDQYYIIQKALNRTIKKDVISTVHRLQKLKADPAGFQDRTIRSTATTKNLLKKEWEEVYKDMEVHVVPIVTIEQGGVLYKTISH | not soluble |
| MKKTLILGATPETNRYAYLAAERLKSHGHEFIPVGRKKGEVLGKTIINERPVIEGVDTVTLYINPQNQLSEYNYILSLKPKRVIFNPGTENEELEEILSENGIEPVIGCTLVMLSAGT | not soluble |
| MKKTLYIFQNGELRRKDHSLYFETEERKRYIPVENTNDIYIFGEVDVSKRFLEFAAQKEIIVHYFNHYGYYVGSFYPREHLNSGHVVLKQAEHYIDPAKRLELACLFVQGSIRQMERVLKYYRSRLSDPEELEKALQLIEREEGKLSQANTVEQLMAVEGHIREAYYASFDAILRHPDFVFEKRTKRPPHNRLNALISFGNSIVYTMCLSEIYKTYLDPRIGFLHSTNFRRFSLNLDIAEIFKPIIVDRLIFTLVNKRMLSSKHFEKLTNGIVLNEEGRKLFVSELEKKMQTTVQHRHLGKSVSYRRLIRLELYKVQKHILGEKMYEPYAARW | not soluble |
| MKKTPLYEAHLRLGARMVDFAGYLLPLQYTSIVEEHLAVRRAVGVFDVSHMGEFLVRGKEALAFLQWATANDAGKLKVGRAQYSMLPNERGGVVDDIYLYRLGEEEYLMVVNAANIAKDLAHLQALAKGFRVELEDASERTALLALQGPKAASLLQGLTDLDLSQKRKNDVFPARVAGRPARLARTGYTGEDGFELFLAPEDAEPVFLALVEAGAKPAGLGARDSLRLEAGFPLYGHELTEETNPLCTPWAWVVKKEKAFLGKEAMLAQACRERLVGLVLEGGIPREGYRVLSGGRPVGRVTSGGYSPLLQRGIALAYVEEGAEGPFQVEVRGRAVPAALSPLPFVPLK | soluble |
| MKKVIGIGEYAVMKNPGVIVTLGLGSCVAVCMRDPVAKVGAMAHVMLPDSGGKTDKPGKYADTAVKTLVEELKKMGAKVERLEAKIAGGASMFESKGMNIGARNVEAVKKHLKDFGIKLLAEDTGGNRARSVEYNIETGKLLVRKVGGGEQLEIKEI | soluble |
| MKKVLIVFGTRPEAIKMAPLVQQLCQDNRFVAKVCVTGQHREMLDQVLELFSITPDFDLNIMEPGQTLNGVTSKILLGMQQVLSSEQPDVVLVHGDTATTFAASLAAYYQQIPVGHVEAGLRTGNIYSPWPEEGNRKLTAALTQYHFAPTDTSRANLLQENYNAENIFVTGNTVIDALLAVREKIHTDMDLQATLESQFPMLDASKKLILVTGHRRESFGGGFERICQALITTAEQHPECQILYPVHLNPNVREPVNKLLKGVSNIVLIEPQQYLPFVYLMDRAHIILTDSGGIQEEAPSLGKPVLVMRETTERPEAVAAGTVKLVGTNQQQICDALSLLLTDPQAYQAMSQAHNPYGDGKACQRIADILAK | not soluble |
| MKKVSSQILHQLRSQRGQSGMWCTNLTHSSTTHHQHPRQTSSHLLQRLESAPCLLKLSTTLLCLEIQQSMSLHPKEAILTTPDAVHREKMLTRSRKGDQTHEDQTDGTRKARNNIGPPNLFWITAKFQEQSTKMPNCWCLQLVNCAQSSILIGLWML | not soluble |
